Measured values taken from the supplement of paper PMC10567573.
± gives the standard deviation.

Experiment: protein stability index of a GFP-peptide fusion (GPS, HEK-293T) (PSI 1-6); higher = more stable
Conditions: c terminus: a fixed tail appended
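Further: 24-mer peptide tiles fused after GFP, lentivirally expressed, FACS-sorted into six equal bins by GFP/DsRed ratio, decoded by Illumina sequencing, PSI is the read-weighted mean bin number.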

GVFVGVISFGQLSDRFGRKKVYLT [SLC22A15]
protein stability index (treatment: DMSO): 2.82 ± 0.43
protein stability index (treatment: MLN4924 1 uM, 8 h): 2.7 ± 0.39

DEDFTFGAYQPTVVSSEGRQSRRQ [FBF1]
protein stability index (treatment: DMSO): 4.77 ± 0.24
protein stability index (treatment: MLN4924 1 uM, 8 h): 4.89 ± 0.3

IVDIKPANMEDLTEVITASEFHPH [PPP2R2C]
protein stability index (treatment: DMSO): 3.92 ± 0.28
protein stability index (treatment: MLN4924 1 uM, 8 h): 3.9 ± 0.41

VSTVSHADADCFVCVFLSHGEGNH [CASP6]
protein stability index (treatment: DMSO): 2.37 ± 0.2
protein stability index (treatment: MLN4924 1 uM, 8 h): 2.18 ± 0.17

ARFAEKEELMLVHSLEYIDLMETT [HDAC6]
protein stability index (treatment: DMSO): 2.66 ± 0.17
protein stability index (treatment: MLN4924 1 uM, 8 h): 2.75 ± 0.38

KVHYLFPDGKEMAEEYDEKTSELL [DPCD]
protein stability index (treatment: DMSO): 4.32 ± 0.25
protein stability index (treatment: MLN4924 1 uM, 8 h): 4.42 ± 0.12

MDSRTVFGAWRCLLDATVAGGQTR [FCHSD1]
protein stability index (treatment: DMSO): 1.92 ± 0.4
protein stability index (treatment: MLN4924 1 uM, 8 h): 2.01 ± 0.33

ALQNYNNELVKCIEELCQKREELC [SSNA1]
protein stability index (treatment: DMSO): 2.94 ± 0.18
protein stability index (treatment: MLN4924 1 uM, 8 h): 2.94 ± 0.33

APGADVKVHRARKTMPKSVVGLHA [EHMT1]
protein stability index (treatment: DMSO): 3.7 ± 0.18
protein stability index (treatment: MLN4924 1 uM, 8 h): 3.91 ± 0.41

HTTIVATRHYRPPEVILELGWAQP [CLK3]
protein stability index (treatment: DMSO): 2.26 ± 0.26
protein stability index (treatment: MLN4924 1 uM, 8 h): 2.23 ± 0.16

LIGLPPEDDWPRDVSLPRGAFPPR [CDK4]
protein stability index (treatment: DMSO): 3.49 ± 0.32
protein stability index (treatment: MLN4924 1 uM, 8 h): 3.69 ± 0.23

ALWCAAGAGHFEVVKLLVSHGANV [FEM1B]
protein stability index (treatment: DMSO): 2.51 ± 1.3
protein stability index (treatment: MLN4924 1 uM, 8 h): 2.37 ± 0.26

TPKAAWIREEGRCSSSDDDTDVDM [PBXIP1]
protein stability index (treatment: DMSO): 5.4 ± 0.32
protein stability index (treatment: MLN4924 1 uM, 8 h): 5.19 ± 0.38

LRATVERMGLMKANHVFFLLYLLH [FADS1]
protein stability index (treatment: DMSO): 2.35 ± 0.37
protein stability index (treatment: MLN4924 1 uM, 8 h): 2 ± 0.18

YHRETEGEEQSQYMHVGSCQHLSS [KCNA3]
protein stability index (treatment: DMSO): 4.09 ± 0.32
protein stability index (treatment: MLN4924 1 uM, 8 h): 4.71 ± 0.47

IETGENVTGMELEFKRLASSKAHT [PTPRD]
protein stability index (treatment: DMSO): 4.35 ± 0.12
protein stability index (treatment: MLN4924 1 uM, 8 h): 4.33 ± 0.29

PHRVLETRGHAISILFGFWTSFIC [SMIM2]
protein stability index (treatment: DMSO): 2.46 ± 0.41
protein stability index (treatment: MLN4924 1 uM, 8 h): 2.32 ± 0.18

PYARIQQSRRQCHAEEDQSQVPEA [SMIM2]
protein stability index (treatment: DMSO): 5.3 ± 0.19
protein stability index (treatment: MLN4924 1 uM, 8 h): 5.19 ± 0.14

REKPFKCQECGKTFRVSSDLIKHQ [ZNF75A]
protein stability index (treatment: DMSO): 4.73 ± 0.19
protein stability index (treatment: MLN4924 1 uM, 8 h): 4.72 ± 0.32

DSSFPPALAEGYRYPELDTPKLDC [TBX6]
protein stability index (treatment: DMSO): 4.7 ± 0.25
protein stability index (treatment: MLN4924 1 uM, 8 h): 4.72 ± 0.17

WKKQQKCDECGKIFSQSSALILHQ [ZNF396]
protein stability index (treatment: DMSO): 2.54 ± 0.25
protein stability index (treatment: MLN4924 1 uM, 8 h): 2.91 ± 0.49

EGLAFLVSCPEGRADCASESACSS [PWWP2B]
protein stability index (treatment: DMSO): 3.6 ± 0.41
protein stability index (treatment: MLN4924 1 uM, 8 h): 3.71 ± 0.24

EECPAHLLEDPLCADVILVLQERV [RHOBTB2]
protein stability index (treatment: DMSO): 3.4 ± 0.42
protein stability index (treatment: MLN4924 1 uM, 8 h): 3.47 ± 0.52

TGGPDACLRCWDQRTIMKPLEYQF [TLE6]
protein stability index (treatment: DMSO): 2.29 ± 0.17
protein stability index (treatment: MLN4924 1 uM, 8 h): 2.74 ± 0.27

VVENAEKILGYLNTNVLSRDLIPP [SLC6A17]
protein stability index (treatment: DMSO): 2.82 ± 0.15
protein stability index (treatment: MLN4924 1 uM, 8 h): 2.84 ± 0.38

SENKIVGIGYNGMPNGCSDDVLPW [DCTD]
protein stability index (treatment: DMSO): 3.46 ± 0.35
protein stability index (treatment: MLN4924 1 uM, 8 h): 3.56 ± 0.15

CIKIWDVTSQATLLTITKAHSNAI [WDR88]
protein stability index (treatment: DMSO): 2.28 ± 0.33
protein stability index (treatment: MLN4924 1 uM, 8 h): 2.61 ± 0.28

HCHKRRTRSCSSASSRSQQSSKRS [CLK3]
protein stability index (treatment: DMSO): 5.19 ± 0.26
protein stability index (treatment: MLN4924 1 uM, 8 h): 5.06 ± 0.063

FVVEYHGDLIEITDAKKREALYAQ [KMT5A]
protein stability index (treatment: DMSO): 2.65 ± 0.34
protein stability index (treatment: MLN4924 1 uM, 8 h): 2.73 ± 0.41

NLASYDVCSILLGTSTLLVWVGVI [MCOLN1]
protein stability index (treatment: DMSO): 3.08 ± 0.6
protein stability index (treatment: MLN4924 1 uM, 8 h): 3.19 ± 0.7

GVSFQAISSMADFWDFAQGPLLDS [PKD2L1]
protein stability index (treatment: DMSO): 2.4 ± 0.29
protein stability index (treatment: MLN4924 1 uM, 8 h): 2.87 ± 0.32

EILHQQNIHQLQNRLSELEVANKD [SASS6]
protein stability index (treatment: DMSO): 3.99 ± 0.19
protein stability index (treatment: MLN4924 1 uM, 8 h): 4.13 ± 0.34

NQAPSGPVASSGEFFGSASQPAVE [CLINT1]
protein stability index (treatment: DMSO): 5.16 ± 0.24
protein stability index (treatment: MLN4924 1 uM, 8 h): 5.24 ± 0.43

MVFIAGILLNGVSGWIFFYVPSSE [P2RY14]
protein stability index (treatment: DMSO): 2.94 ± 0.34
protein stability index (treatment: MLN4924 1 uM, 8 h): 2.84 ± 0.51

SLKDHKVSFLRSGTKLIFRRRPRQ [C2CD2L]
protein stability index (treatment: DMSO): 3.24 ± 0.49
protein stability index (treatment: MLN4924 1 uM, 8 h): 3.44 ± 0.55

SQFKILVSLLENNIYVHDLLTFQQ [VPS39]
protein stability index (treatment: DMSO): 3.02 ± 0.29
protein stability index (treatment: MLN4924 1 uM, 8 h): 3.21 ± 0.6

PVENIPEIILYWKHSTIFDVGENL [SLC25A25]
protein stability index (treatment: DMSO): 2.37 ± 0.41
protein stability index (treatment: MLN4924 1 uM, 8 h): 2.02 ± 0.44

TVERPFYDLWASDNPLDRPLVGQD [NOP53]
protein stability index (treatment: DMSO): 4.09 ± 0.37
protein stability index (treatment: MLN4924 1 uM, 8 h): 4.2 ± 0.15

KQTIGNSCKACGYRGMLDTHHKLC [EIF5]
protein stability index (treatment: DMSO): 2.8 ± 0.37
protein stability index (treatment: MLN4924 1 uM, 8 h): 2.81 ± 0.5

LWIKFFAAGELESMGFSARYNFTP [NETO1]
protein stability index (treatment: DMSO): 2.63 ± 0.85
protein stability index (treatment: MLN4924 1 uM, 8 h): 2.58 ± 0.89

MSFLSRQQPPPPRRAGAACTLRQK [WEE1]
protein stability index (treatment: DMSO): 3.94 ± 0.2
protein stability index (treatment: MLN4924 1 uM, 8 h): 3.88 ± 0.24

LEEFKENAYKDLAWKHGNIHLSAP [PCMTD2]
protein stability index (treatment: DMSO): 3.33 ± 0.26
protein stability index (treatment: MLN4924 1 uM, 8 h): 3.81 ± 0.12

REEEERERLQKEEEKRRREEEERL [ACBD3]
protein stability index (treatment: DMSO): 5.5 ± 0.35
protein stability index (treatment: MLN4924 1 uM, 8 h): 5.74 ± 0.21

LISCSEDGSVRIWELREKQQLAAE [WDR41]
protein stability index (treatment: DMSO): 2.89 ± 0.28
protein stability index (treatment: MLN4924 1 uM, 8 h): 2.97 ± 0.2
